T1: ARHGAP21, Q5T5U3
T1 sequence (Q5T5U3 45-169, limits assumed, looked up): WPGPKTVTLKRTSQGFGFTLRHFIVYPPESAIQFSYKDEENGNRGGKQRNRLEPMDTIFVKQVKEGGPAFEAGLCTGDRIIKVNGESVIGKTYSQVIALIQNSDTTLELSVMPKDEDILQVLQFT

T2: ARHGEF11, O15085
T2 sequence (O15085 42-136, limits assumed, looked up): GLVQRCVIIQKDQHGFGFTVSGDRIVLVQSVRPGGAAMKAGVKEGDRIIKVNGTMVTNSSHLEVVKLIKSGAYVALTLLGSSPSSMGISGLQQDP

T3: DFNB31_3, Q9P202
T3 sequence (Q9P202 811-907, limits assumed, looked up): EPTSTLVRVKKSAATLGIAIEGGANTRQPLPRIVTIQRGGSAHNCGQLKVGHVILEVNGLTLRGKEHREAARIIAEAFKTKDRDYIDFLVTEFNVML

T4: GRIP1_2, Q9Y3R0
T4 sequence (Q9Y3R0 145-248, limits assumed, looked up): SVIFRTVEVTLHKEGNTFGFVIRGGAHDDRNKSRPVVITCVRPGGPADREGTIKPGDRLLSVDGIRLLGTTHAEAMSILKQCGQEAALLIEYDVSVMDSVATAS

T5: LNX2_3, Q8N448
T5 sequence (Q8N448 463-564, limits assumed, looked up): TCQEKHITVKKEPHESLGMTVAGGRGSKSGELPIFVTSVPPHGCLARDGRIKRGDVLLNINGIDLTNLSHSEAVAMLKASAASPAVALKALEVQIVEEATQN

T6: MPDZ_10, O75970
T6 sequence (O75970 1624-1722, limits assumed, looked up): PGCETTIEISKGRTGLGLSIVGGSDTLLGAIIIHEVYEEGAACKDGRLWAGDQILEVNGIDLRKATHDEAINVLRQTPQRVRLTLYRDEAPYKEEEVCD

T7: MPDZ_12, O75970
T7 sequence (O75970 1857-1958, limits assumed, looked up): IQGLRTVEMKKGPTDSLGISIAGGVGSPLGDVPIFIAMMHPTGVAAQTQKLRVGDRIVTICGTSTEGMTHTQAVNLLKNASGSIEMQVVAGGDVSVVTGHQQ

T8: PCLO, Q9Y6V0
T8 sequence (Q9Y6V0 4491-4600, limits assumed, looked up): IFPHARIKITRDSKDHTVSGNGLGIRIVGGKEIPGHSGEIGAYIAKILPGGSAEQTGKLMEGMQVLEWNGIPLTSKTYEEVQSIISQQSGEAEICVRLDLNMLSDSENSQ

T9: SIPA1L2, Q9P2F8
T9 sequence (Q9P2F8 945-1036, limits assumed, looked up): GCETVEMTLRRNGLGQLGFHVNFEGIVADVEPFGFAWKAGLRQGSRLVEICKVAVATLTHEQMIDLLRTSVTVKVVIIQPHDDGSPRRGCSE

T10: GRIP1_7, Q9Y3R0
T10 sequence (Q9Y3R0 999-1096, limits assumed, looked up): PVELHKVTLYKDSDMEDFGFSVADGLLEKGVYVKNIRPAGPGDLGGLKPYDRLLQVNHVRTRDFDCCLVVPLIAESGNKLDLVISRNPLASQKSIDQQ

T11: NHERF3_4, Q5T2W1
T11 sequence (Q5T2W1 373-468, limits assumed, looked up): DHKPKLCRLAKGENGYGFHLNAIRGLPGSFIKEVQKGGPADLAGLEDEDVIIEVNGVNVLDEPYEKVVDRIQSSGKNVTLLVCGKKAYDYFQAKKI

T12: PARD3B_1, Q8TEW8
T12 sequence (Q8TEW8 196-299, limits assumed, looked up): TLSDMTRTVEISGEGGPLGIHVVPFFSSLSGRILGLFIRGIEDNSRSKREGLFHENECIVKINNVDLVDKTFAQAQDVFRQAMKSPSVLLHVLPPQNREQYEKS

T13: SNTB1, Q13884
T13 sequence (Q13884 107-205, limits assumed, looked up): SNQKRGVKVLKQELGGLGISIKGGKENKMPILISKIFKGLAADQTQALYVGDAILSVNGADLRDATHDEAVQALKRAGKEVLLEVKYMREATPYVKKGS


What was measured:
Assay in all cases: holdup assay
Design in all cases: key: below the threshold = too weak to quantify, mostly under pKd 3.1 to 4
Details in all cases: plain residues with an end cap or a label only (N-terminal biotin on a linker: ado-ado)
[1] = molecular target: T1, ARHGAP21, Q5T5U3
[2] = molecular target: T2, ARHGEF11, O15085
[3] = molecular target: T3, DFNB31_3, Q9P202
[4] = molecular target: FRMPD2_1, Q68DX3
[5] = molecular target: T4, GRIP1_2, Q9Y3R0
[6] = molecular target: IL16_3, Q14005
[7] = molecular target: Inadl_3, Q8NI35
[8] = molecular target: LAP2, Q96RT1
[9] = molecular target: T5, LNX2_3, Q8N448
[10] = molecular target: MAGI2_6, Q86UL8
[11] = molecular target: MAST1, Q9Y2H9
[12] = molecular target: T6, MPDZ_10, O75970
[13] = molecular target: T7, MPDZ_12, O75970
[14] = molecular target: T8, PCLO, Q9Y6V0
[15] = molecular target: T9, SIPA1L2, Q9P2F8
[16] = molecular target: DLG4_2, P78352
[17] = molecular target: T10, GRIP1_7, Q9Y3R0
[18] = molecular target: GRIP2_5, Q9C0E4
[19] = molecular target: IL16_4, Q14005
[20] = molecular target: LNX1_3, Q8TBB1
[21] = molecular target: MAGI2_3, Q86UL8
[22] = molecular target: T11, NHERF3_4, Q5T2W1
[23] = molecular target: T12, PARD3B_1, Q8TEW8
[24] = molecular target: T13, SNTB1, Q13884

IL16_4, Q14005, sequence (Q14005 1229-1329): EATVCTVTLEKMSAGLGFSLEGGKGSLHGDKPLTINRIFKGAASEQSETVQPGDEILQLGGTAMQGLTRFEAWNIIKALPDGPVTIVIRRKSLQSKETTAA
FRMPD2_1, Q68DX3, sequence (Q68DX3 770-861): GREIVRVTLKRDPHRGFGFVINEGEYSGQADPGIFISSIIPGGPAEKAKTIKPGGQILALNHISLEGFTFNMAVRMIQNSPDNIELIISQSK
Inadl_3, Q8NI35, sequence (Q8NI35 359-469): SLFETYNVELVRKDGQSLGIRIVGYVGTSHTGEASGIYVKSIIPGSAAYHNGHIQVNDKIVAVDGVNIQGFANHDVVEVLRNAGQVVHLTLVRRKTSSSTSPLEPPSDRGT
IL16_3, Q14005, sequence (Q14005 1107-1207): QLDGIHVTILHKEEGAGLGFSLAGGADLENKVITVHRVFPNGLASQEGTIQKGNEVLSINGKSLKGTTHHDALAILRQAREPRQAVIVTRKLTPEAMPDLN
MAST1, Q9Y2H9, sequence (Q9Y2H9 962-1065): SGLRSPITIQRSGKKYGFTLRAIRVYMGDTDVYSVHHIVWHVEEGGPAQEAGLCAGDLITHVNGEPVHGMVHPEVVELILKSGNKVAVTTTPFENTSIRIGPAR
MAGI2_6, Q86UL8, sequence (Q86UL8 1141-1229): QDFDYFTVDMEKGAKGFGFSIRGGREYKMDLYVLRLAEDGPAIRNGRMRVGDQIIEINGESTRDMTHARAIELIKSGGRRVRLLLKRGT
GRIP2_5, Q9C0E4, sequence (Q9C0E4 544-642): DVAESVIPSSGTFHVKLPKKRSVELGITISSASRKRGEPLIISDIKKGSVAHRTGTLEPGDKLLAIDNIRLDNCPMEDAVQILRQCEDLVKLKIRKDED
DLG4_2, P78352, sequence (P78352 155-259): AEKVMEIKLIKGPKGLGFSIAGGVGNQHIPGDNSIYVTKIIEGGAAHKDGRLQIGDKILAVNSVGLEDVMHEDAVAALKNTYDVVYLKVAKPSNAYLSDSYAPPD
LAP2, Q96RT1, sequence (Q96RT1 other isoform, or with tags, fused parts or gaps): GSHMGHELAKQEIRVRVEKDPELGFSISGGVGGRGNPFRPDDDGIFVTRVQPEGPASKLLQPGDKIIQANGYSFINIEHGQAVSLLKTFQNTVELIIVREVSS
LNX1_3, Q8TBB1, sequence (Q8TBB1 500-596): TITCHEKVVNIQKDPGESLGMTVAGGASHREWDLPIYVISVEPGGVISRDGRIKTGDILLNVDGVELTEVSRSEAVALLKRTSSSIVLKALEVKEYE
MAGI2_3, Q86UL8, sequence (Q86UL8 600-682): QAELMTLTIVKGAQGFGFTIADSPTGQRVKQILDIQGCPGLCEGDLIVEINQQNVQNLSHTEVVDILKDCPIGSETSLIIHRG

Row | Binder | pKd [1] | pKd [2] | pKd [3] | pKd [4] | pKd [5] | pKd [6] | pKd [7] | pKd [8] | pKd [9] | pKd [10] | pKd [11] | pKd [12] | pKd [13] | pKd [14] | pKd [15] | pKd [16] | pKd [17] | pKd [18] | pKd [19] | pKd [20] | other results
1 | KSRVAFFEEL [NF2, P35240;P35240-1] | below the threshold | 4.32 | below the threshold | below the threshold | below the threshold | below the threshold | 4.28 | below the threshold | below the threshold | 4.05 | 4.37 | below the threshold | below the threshold | below the threshold | below the threshold |  |  |  |  |  | 
2 | IDESKKEWLI [CNTNAP2, Q9UHC6] | below the threshold | below the threshold | 3.52 | below the threshold | below the threshold | below the threshold | 5.46 | below the threshold | below the threshold | below the threshold | below the threshold | below the threshold | below the threshold | below the threshold | below the threshold | below the threshold | below the threshold | below the threshold | 3.79 | below the threshold | pKd [21]: 3.5; pKd [22]: below the threshold; pKd [23]: 4.63; pKd [24]: below the threshold
3 | SRSVVESDEL [MYPN, Q86TC9] | 3.51 | 3.74 | below the threshold | below the threshold | below the threshold | below the threshold | below the threshold | below the threshold | below the threshold | below the threshold | below the threshold | below the threshold | below the threshold | below the threshold | below the threshold | below the threshold | below the threshold | below the threshold | below the threshold | below the threshold | pKd [21]: below the threshold; pKd [22]: below the threshold; pKd [23]: below the threshold; pKd [24]: below the threshold
4 | KRPEMTSSSV [MUC3A, MUC3B, Q02505;Q9H195] |  | 3.74 | below the threshold |  | below the threshold | below the threshold | below the threshold |  | below the threshold | 3.66 | 4.17 | 3.73 |  | below the threshold | below the threshold | 4.15 | below the threshold | below the threshold | 1.87 | below the threshold | pKd [23]: below the threshold
